Values of other authors, collected in paper PMC2734106.

Key:
ubiquitin (Homo sapiens) = ubiquitin (Homo sapiens) (UniProt P0CG47)
[1] = biological target: K48-linked tetraubiquitin (Homo sapiens) (UniProt P0CG47)

Sequence of USP5 (P45974 2-858): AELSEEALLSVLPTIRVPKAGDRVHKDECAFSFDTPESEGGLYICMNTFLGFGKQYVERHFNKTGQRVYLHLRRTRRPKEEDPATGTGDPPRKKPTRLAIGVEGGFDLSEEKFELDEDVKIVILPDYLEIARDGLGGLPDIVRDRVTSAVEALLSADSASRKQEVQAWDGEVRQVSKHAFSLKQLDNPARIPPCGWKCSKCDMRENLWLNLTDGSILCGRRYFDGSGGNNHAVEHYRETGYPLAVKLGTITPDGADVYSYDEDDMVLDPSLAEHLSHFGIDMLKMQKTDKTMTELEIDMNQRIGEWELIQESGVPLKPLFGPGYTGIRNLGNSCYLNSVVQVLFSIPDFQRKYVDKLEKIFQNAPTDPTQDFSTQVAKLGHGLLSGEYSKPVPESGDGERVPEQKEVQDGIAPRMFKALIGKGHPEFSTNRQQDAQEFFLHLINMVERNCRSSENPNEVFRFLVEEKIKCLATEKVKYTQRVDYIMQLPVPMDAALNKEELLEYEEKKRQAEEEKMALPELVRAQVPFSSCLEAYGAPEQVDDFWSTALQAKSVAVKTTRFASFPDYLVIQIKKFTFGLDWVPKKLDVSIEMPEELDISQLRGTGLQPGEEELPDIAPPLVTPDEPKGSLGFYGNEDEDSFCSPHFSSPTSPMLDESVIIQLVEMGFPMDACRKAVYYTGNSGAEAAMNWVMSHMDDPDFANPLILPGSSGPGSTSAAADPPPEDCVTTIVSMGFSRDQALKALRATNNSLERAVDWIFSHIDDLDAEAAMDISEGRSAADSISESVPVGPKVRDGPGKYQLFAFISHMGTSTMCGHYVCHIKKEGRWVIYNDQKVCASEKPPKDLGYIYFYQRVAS

- Kd (ubiquitin (Homo sapiens)): 50 nM
- Kd [1]: < 1 nM
Substance: USP5 (from UniProt P45974)
